For three substances, Kd, dH and stoichiometry N results are on record in publication PMC5941314.

Test [1] concerns the target Ube2T (Homo sapiens) (UniProt Q9NPD8). The following applies: cited from earlier work.
For test [2], the target named is ZNRF1^CTD (C-terminal domain of ZNRF1, residues 139–227) (UniProt Q8ND25). Put plainly: ITC; ZNRF1 construct (10–30 µM) in the cell, E2 in the syringe; 25°C; 20 mM sodium phosphate pH 8.0, 150 mM NaCl; single site model. Background: ITC needs no label: the signal is the heat of the interaction.
ZNRF1^CTD (C-terminal domain of ZNRF1, residues 139–227), sequence (Q8ND25 139-227): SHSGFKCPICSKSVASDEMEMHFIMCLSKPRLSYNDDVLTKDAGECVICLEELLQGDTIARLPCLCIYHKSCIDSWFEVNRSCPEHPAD

Ube2W, sequence (Q96B02 whole entry): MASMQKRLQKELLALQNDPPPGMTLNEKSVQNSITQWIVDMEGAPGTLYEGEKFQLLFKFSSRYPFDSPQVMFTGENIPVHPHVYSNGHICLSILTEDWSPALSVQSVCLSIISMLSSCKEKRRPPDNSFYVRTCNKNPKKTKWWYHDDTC
Ube2D2, sequence (P62837 whole entry): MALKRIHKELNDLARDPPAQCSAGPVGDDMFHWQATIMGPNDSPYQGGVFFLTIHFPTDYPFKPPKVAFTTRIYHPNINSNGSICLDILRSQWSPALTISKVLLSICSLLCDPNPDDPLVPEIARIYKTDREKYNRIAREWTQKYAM
Ube2T (Homo sapiens), sequence (Q9NPD8 whole entry, the tested form may be a part): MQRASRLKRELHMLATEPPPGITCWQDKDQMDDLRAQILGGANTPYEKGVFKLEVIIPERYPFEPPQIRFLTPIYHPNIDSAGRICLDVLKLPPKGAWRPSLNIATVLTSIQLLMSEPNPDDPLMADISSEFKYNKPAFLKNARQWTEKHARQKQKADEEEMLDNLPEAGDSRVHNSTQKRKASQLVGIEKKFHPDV
FANCL, sequence (Q9NW38 2-375): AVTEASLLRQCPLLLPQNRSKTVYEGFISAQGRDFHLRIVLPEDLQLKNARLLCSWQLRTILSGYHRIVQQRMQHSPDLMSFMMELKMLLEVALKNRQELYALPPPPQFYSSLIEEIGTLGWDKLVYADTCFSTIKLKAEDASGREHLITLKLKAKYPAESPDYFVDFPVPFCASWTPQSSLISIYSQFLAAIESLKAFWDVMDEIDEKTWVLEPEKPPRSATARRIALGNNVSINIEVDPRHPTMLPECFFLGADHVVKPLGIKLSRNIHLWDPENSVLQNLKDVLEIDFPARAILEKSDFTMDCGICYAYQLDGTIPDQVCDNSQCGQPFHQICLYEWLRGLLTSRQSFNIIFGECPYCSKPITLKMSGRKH

On to FANCL (from UniProt Q9NW38), for which the Kd in test [1] is 500 nM.
Consider “Ube2D2 (from UniProt P62837 1-147) (enzyme)”, for which, in test [2], the dH was -7.79 kcal/mol and the stoichiometry N came to 0.963.
In the same order, the values of “Ube2W (from UniProt Q96B02 1-151) (enzyme)” are -8.85 kcal/mol and 0.906.

The Kd is a measure of binding affinity in units of concentration. The stoichiometry N is the number of molecules, sites or subunits per partner or assembly.
